Experimental data taken from patent publication US20090252717A1, “Compositions and Methods for Treating Polyglutamine-Expansion Neurodegenerative Diseases” (priority 2006, published 2009).

Legend:
[1] = test system: fast axonal transport; assay: Vesicle motility assay in isolated squid axoplasm, perfusion of recombinant protein alone; assay type: cell-based, squid Loligo pealeii
Description: Recombinant Polypeptides. Wild-type androgen receptor and polyQ-AR polypeptides were produced by in vitro transcription/translation (TNT T7-Coupled Reticulocyte Lysate System; Promega, Madison, Wis.) according to manufacturer's protocols. Typically, 1.8 μg of plasmid was transcribed in 50 μl reaction mix. To assess protein levels, parallel reactions were performed incorporating ^35S-labeled methionine (Amersham) or quantitative immunoblots were performed. Protein concentrations were typically 0.2-0.5 nM. In vitro translated androgen receptor has been characterized and shown to be functional (Kuiper, et al. (1993) Biochem. J. 296(Pt 1):161-7). In vitro translation products were briefly centrifuged to eliminate translation machinery, and supernatants frozen in liquid N2 until used.
Genes encoding human wild-type Huntingtin (Htt) (i.e., Q20, residues 1-548; Szebenyi, et al. (2003) supra) and polyQ-expanded Htt (i.e., Q46, residues 1-949; Qin, et al. (2004) J. Neurosci. 24(1):269-81) were cloned into the pcDNA.3 vector and produced by in vitro transcription/translation as described for the androgen receptor. Alternatively, shorter constructs (Htt exon1) were expressed in E. coli as GST-tagged proteins.
Squid Axoplasm. Isolated squid axoplasm represents a unique experimental system to evaluate axonal-specific effects and pathogenic mechanisms. This model was instrumental in the original discovery of kinesin-1 (Brady (1985) Nature 317:73-75, novel pathways for fast axonal transport (Morfini, et al. (2002) supra; Morfini, et al. (2004) supra), and axonal-specific phosphorylation events (Grant & Pant (2000) J. Neurocytol. 29:843-72). Bidirectional membrane-bound organelle movements are observed with properties unchanged from intact axons for hours after removal of plasma membrane (Brady, et al. (1982) Science 218:1129-1131). Video-enhanced microscopic techniques allow quantitative analysis of membrane-bound organelle movement in fast axonal transport. Typical kinesin-dependent transport rates are 1.5-2.0 μm/s, whereas retrograde, cytoplasmic dynein-dependent rates are 1-1.3 μm/s in perfused axoplasms. These rates are maintained with little (<10%) or no reduction for >1 hour after perfusion with control buffer (Brady, et al. (1982) supra). The lack of permeability barriers allows perfusion of the axoplasm with a variety of effector molecules at known concentrations. Effectors of interest include nucleotides, pharmacological inhibitors, recombinant polypeptides, and antibodies. Typically, 6-His, Hemagglutinin, Myc and GST-tagged recombinant proteins are either expressed in bacteria or in vitro translated, purified and perfused (Szebenyi, et al. (2003) supra; Morfini, et al. (2002) supra).
Motility Studies in Isolated Axoplasm. Axoplasm was extruded from giant axons of the squid Loligo pealeii (Marine Biological Laboratory, Woods Hole, Mass.) as described (Brady, et al. (1985) Cell Motil. 5:81-101). Axons were 400-600 μm in diameter and provided ≈5 μl of axoplasm. […] Preparations were analyzed on a ZEISS AXIOMAT with a 100×, 1.3 n.a. objective, and DIC optics. […] Organelle velocities were measured with a Photonics Microscopy C2117 video manipulator (Hamamatsu).

[2] = biological target: T1, kinesin-1 heavy chain (Rattus norvegicus, UniProt P56536); assay: Binding of kinesin-1 to microtubules after JNK3 treatment; assay type: biochemical; conditions: kinesin-1 heavy chain treated with JNK3 kinase
T1 construct: coding for the first 584 amino acids of rat KHC (KHC-584); made in house; host or cells: E. coli
T1 sequence (P56536 1-584 limits assumed): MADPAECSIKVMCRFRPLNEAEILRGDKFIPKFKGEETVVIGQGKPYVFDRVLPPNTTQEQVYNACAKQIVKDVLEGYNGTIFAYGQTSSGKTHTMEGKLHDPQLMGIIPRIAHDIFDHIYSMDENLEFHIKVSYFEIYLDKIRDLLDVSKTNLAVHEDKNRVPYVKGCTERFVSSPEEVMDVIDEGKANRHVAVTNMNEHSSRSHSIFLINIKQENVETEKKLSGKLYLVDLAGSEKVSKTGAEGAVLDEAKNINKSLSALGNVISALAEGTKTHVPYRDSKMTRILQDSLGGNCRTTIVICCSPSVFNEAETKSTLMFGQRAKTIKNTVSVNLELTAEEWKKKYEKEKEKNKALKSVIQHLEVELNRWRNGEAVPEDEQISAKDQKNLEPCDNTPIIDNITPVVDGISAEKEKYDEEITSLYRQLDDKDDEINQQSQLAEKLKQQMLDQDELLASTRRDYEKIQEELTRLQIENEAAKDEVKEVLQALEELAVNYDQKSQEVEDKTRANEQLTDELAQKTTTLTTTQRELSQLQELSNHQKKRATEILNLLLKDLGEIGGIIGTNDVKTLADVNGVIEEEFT
Description: Microtubule Binding Assays. Microtubule binding assays was performed according to established methods (Stenoien & Brady (1997) supra). Briefly, three 70% confluent 100-mm culture dishes containing either wild-type or 902-6 SH-SY5Y cells were homogenized with 500 μl of HEM buffer (50 mM HEPES, 1 mM EGTA, 2 mM MgSO4, 1% TRITON X-100, pH 7.2, 1 μM staurosporine, 1 μM K252a, 50 nM okadaic acid and 1/100 mammalian protease inhibitor cocktail (Sigma) at 4° C. Lysates were centrifuged at 50000 rpm for 5 minutes at 4° C.
Six hundred μg of total protein from clarified wild-type or 902-6 SH-SY5Y cells were incubated with 0.2 mg of TAXOL-stabilized microtubules (Cytoskeleton, Denver, Colo.) and 2.5 mM AMP-PNP for 30 minutes at 37° C. Samples were centrifuged for 25 minutes at 50000 rpm (4° C.) over a cushion of 20% sucrose in HEM plus 20 μM TAXOL. Pellets and supernatants were collected and the amount of kinesin in each fraction was assayed by immunoblot with anti-kinesin monoclonal antibodies.
In Vitro Kinesin-1 Phosphorylation. A recombinant cDNA fragment coding for the first 584 amino acids of rat KHC (KHC-584) was subcloned into pET expression vector, expressed in E. coli and purified by nickel affinity chromatography (Qiagen, Valencia, Calif.). […]

[3] = perfused, concentration not given

B1: wild-type Htt: human wild-type Huntingtin (Q20, residues 1-548) produced by in vitro transcription/translation (protein, UniProt P42858 1-548, looked up, fragment)
chain: MATLEKLMKAFESLKSFQQQQQQQQQQQQQQQQQQQQQPPPPPPPPPPPQLPQPPPQAQPLLPQPQPPPPPPPPPPGPAVAEEPLHRPKKELSATKKDRVNHCLTICENIVAQSVRNSPEFQKLLGIAMELFLLCSDDAESDVRMVADECLNKVIKALMDSNLPRLQLELYKEIKKNGAPRSLRAALWRFAELAHLVRPQKCRPYLVNLLPCLTRTSKRPEESVQETLAAAVPKIMASFGNFANDNEIKVLLKAFIANLKSSSPTIRRTAAGSAVSICQHSRRTQYFYSWLLNVLLGLLVPVEDEHSTLLILGVLLTLRYLVPLLQQQVKDTSLKGSFGVTRKEMEVSPSAEQLVQVYELTLHHTQHQDHNVVTGALELLQQLFRTPPPELLQTLTAVGGIGQLTAAKEESGGRSRSGSIVELIAGGGSSCSPVLSRKQKGKVLLGEEEALEDDSESRSDVSSSALTASVKDEISGELAASSGVSTPGSAGHDIITEQPRSQHTLQADSVDLASCDLTSSATDGDEEDILSHSSSQVSAVPSDPAMDL
modifications: Q20
notes: human wild-type Huntingtin (Q20, residues 1-548) produced by in vitro transcription/translation
- effect on fast axonal transport ([1]; perfused alone): showed no effect on either direction of fast axonal transport

B2: polyQ-Htt: polyQ-expanded Huntingtin (Q46, residues 1-949) produced by in vitro transcription/translation (protein, UniProt P42858 1-949, looked up, fragment)
chain: MATLEKLMKAFESLKSFQQQQQQQQQQQQQQQQQQQQQPPPPPPPPPPPQLPQPPPQAQPLLPQPQPPPPPPPPPPGPAVAEEPLHRPKKELSATKKDRVNHCLTICENIVAQSVRNSPEFQKLLGIAMELFLLCSDDAESDVRMVADECLNKVIKALMDSNLPRLQLELYKEIKKNGAPRSLRAALWRFAELAHLVRPQKCRPYLVNLLPCLTRTSKRPEESVQETLAAAVPKIMASFGNFANDNEIKVLLKAFIANLKSSSPTIRRTAAGSAVSICQHSRRTQYFYSWLLNVLLGLLVPVEDEHSTLLILGVLLTLRYLVPLLQQQVKDTSLKGSFGVTRKEMEVSPSAEQLVQVYELTLHHTQHQDHNVVTGALELLQQLFRTPPPELLQTLTAVGGIGQLTAAKEESGGRSRSGSIVELIAGGGSSCSPVLSRKQKGKVLLGEEEALEDDSESRSDVSSSALTASVKDEISGELAASSGVSTPGSAGHDIITEQPRSQHTLQADSVDLASCDLTSSATDGDEEDILSHSSSQVSAVPSDPAMDLNDGTQASSPISDSSQTTTEGPDSAVTPSDSSEIVLDGTDNQYLGLQIGQPQDEDEEATGILPDEASEAFRNSSMALQQAHLLKNMSHCRQPSDSSVDKFVLRDEATEPGDQENKPCRIKGDIGQSTDDDSAPLVHCVRLLSASFLLTGGKNVLVPDRDVRVSVKALALSCVGAAVALHPESFFSKLYKVPLDTTEYPEEQYVSDILNYIDHGDPQVRGATAILCGTLICSILSRSRFHVGDWMGTIRTLTGNTFSLADCIPLLRKTLKDESSVTCKLACTAVRNCVMSLCSSSYSELGLQLIIDVLTLRNSSYWLVRTELLETLAEIDFRLVSFLEAKAENLHRGAHHYTGLLKLQERVLNNVVIHLLGDEDPRVRHVAAASLIRLVPKLFYKCDQGQADP
modifications: polyQ expanded to Q46
notes: polyQ-expanded Huntingtin (Q46, residues 1-949) produced by in vitro transcription/translation
- effect on fast axonal transport ([1]; perfused alone): striking inhibition of fast axonal transport rates

B3: JNK3: recombinant, active JNK3 protein (protein, UniProt P53779 1-464, looked up)
Mitogen-activated protein …: MSLHFLYYCSEPTLDVKIAFCQGFDKQVDVSYIAKHYNMSKSKVDNQFYSVEVGDSTFTVLKRYQNLKPIGSGAQGIVCAAYDAVLDRNVAIKKLSRPFQNQTHAKRAYRELVLMKCVNHKNIISLLNVFTPQKTLEEFQDVYLVMELMDANLCQVIQMELDHERMSYLLYQMLCGIKHLHSAGIIHRDLKPSNIVVKSDCTLKILDFGLARTAGTSFMMTPYVVTRYYRAPEVILGMGYKENVDIWSVGCIMGEMVRHKILFPGRDYIDQWNKVIEQLGTPCPEFMKKLQPTVRNYVENRPKYAGLTFPKLFPDSLFPADSEHNKLKASQARDLLSKMLVIDPAKRISVDDALQHPYINVWYDPAEVEAPPPQIYDKQLDEREHTIEEWKELIYKEVMNSEEKTKNGVVKGQPSPSGAAVNSSESLPPSSSVNDISSMSTDQTLASDTDSSLEASAGPLGCCR
- effect on binding of kinesin-1 to microtubules [2]: inhibits the binding of kinesin-1 to microtubules
- mean rate for anterograde fast axonal transport [1, 3]: 0.9 µM/s
- retrograde, cytoplasmic dynein-dependent fast axonal transport mean rate [1, 3]: 1.25 µM/s

B4: JNK1: recombinant, active JNK1 protein (protein, UniProt P45983 1-427, looked up)
Mitogen-activated protein …: MSRSKRDNNFYSVEIGDSTFTVLKRYQNLKPIGSGAQGIVCAAYDAILERNVAIKKLSRPFQNQTHAKRAYRELVLMKCVNHKNIIGLLNVFTPQKSLEEFQDVYIVMELMDANLCQVIQMELDHERMSYLLYQMLCGIKHLHSAGIIHRDLKPSNIVVKSDCTLKILDFGLARTAGTSFMMTPYVVTRYYRAPEVILGMGYKENVDLWSVGCIMGEMVCHKILFPGRDYIDQWNKVIEQLGTPCPEFMKKLQPTVRTYVENRPKYAGYSFEKLFPDVLFPADSEHNKLKASQARDLLSKMLVIDASKRISVDEALQHPYINVWYDPSEAEAPPPKIPDKQLDEREHTIEEWKELIYKEVMDLEERTKNGVIRGQPSPLGAAVINGSQHPSSSSSVNDVSSMSTDPTLASDTDSSLEAAAGPLGCCR
- effect on fast axonal transport ([1]; perfused at 200 nM): did not show any effect on either direction of fast axonal transport
